Test results reported in the DeepSol protein solubility set.

Assay: soluble on expression in E. coli; label from the status in PepcDB or PDB records

**Q.** Which “soluble on expression in E. coli” value does the source give for “MNSELKARYKVLGSEKEHTKSETLTETLIEVIVNGDVEPGSKISEPELARKYQVSRGPLREALMRLEGLGLIERIPHVGARVTTFSPAKLIELYSVREALEGMAARLAARHITQEELLSLEMLLSTHSKHIDQVEGASYFHQHGDFDFHYRIIQASRNSKLISLLCDELYHLLRMYRYQSPRAQSRPNEALTEHKFILEAIRNRDEELAEMLMRRHISGSRKLIQSQIIHTESLDKD” here?
**A.** not soluble

**Q.** Which “soluble on expression in E. coli” value does the source give for “SLEIERINEHTVKFYMSYGDIEDRGFDREEIWYNRERSEELFWEVMDEVHEEEEFAVEGPLWIQVQALDKGLEIIVTKAQLSKDGQKLELPIPEDKKQEPASEDLDALLDDFQKEEQAVNQEEKEQKLQFVLRFGDFEDVISLSKLNVNGSKTTLYSFENRYYLYVDFCNMTDEEVENQLSILLEYATESSISIHRLEEYGKLIISEHALETIKKHFAS” here?
**A.** soluble

**Q.** With “AAEVGDDFLGDFVVGERVWVNGVKPGVVQYLGETQFAPGQWAGVVLDDPVGKNDGAVGGVRYFECPALQGIFTRPSKLTRQP” as the sequence, how does the “soluble on expression in E. coli” value read?
**A.** soluble

**Q.** With “MSLANLKVNLYGMEFLNPIMTAAGPGAKDGALCQEAAKGGAGAICTKTISVLPADVPRPCMAKTNSGFLNTELWSELPKEQWIEEEYKKVKETGLPVIVSMGYSAEQIAEVAPLVKPYADAVELSTHYVGTDVAPIVNALKAAKAVLDVPVFMKMSPHTDIQTIAKAVEEAGADGLVMINSFGPCMAIDVNTGYPIMGSKAGYGWLSGAPIRPLAIRCIYEASQVVNIPIIGVGGITCGKDVAEMMMAGASAVQVCTEAILKGPSIYGKIAKELNEFLDENGYADVNEIKGLTHKKMAARGFRTHSVAPVVDEGHHHHHH” as the sequence, how does the “soluble on expression in E. coli” value read?
**A.** soluble

**Q.** Which “soluble on expression in E. coli” value does the source give for “MEIPSYASNIQPYGSQSGTKIASENDNAKSVSLSGDNSRSVSRTDKLSEHFSEQVRARQQESAETAMAQAKQRQRLNEEQLAKMVEQMNEFVKSINKGLSFRLDRESGREVVTIYEASTGDIIRQIPEEEMLEVLRRLAREQDHRSGLLMAKV” here?
**A.** not soluble

**Q.** For “MKKFFRFQLCCICLLVLIVSACKVKRPDSVISESEMENLLYDYHIAKAMGENMPGGENYKKALYVEAVFKKYGTTEEVFDSSMVWYTRNTKILSEIYEKVNKRLKAQQNAINHLIALRDNKPKMSAPGDSINVWAWQRIAQLTEAPLNNKFTFTLPSDTNFKKRDVLLWKMQYNFLSEIPDSTMAPIMAMQIVYENDTVTHSCVKHIFKSGIQNIRLQSDTMNIKEIKGFIFCPLSEESITLLVSDISLTRYHANDSITQISKDSLKTDSIKEKSKNDSIQKKTPKDTIQASSSHQRTNPNDLNRPNNDVRPIKPEQREKEMQIEKEKQQLERQQRTNPRRPLRRQNN”, which “soluble on expression in E. coli” value is on record?
**A.** not soluble

**Q.** Which “soluble on expression in E. coli” value does the source give for “MIGVASSAVFDLLASDAVFQSQGEEEYRKFQQKNLHVPLPKGIAFPFIKRLLSVNDLSVDPTDPLVEVILLPRNDPDTGLRVLKTIEHYELGMTRAIFMQGKSPYEYIPALNIALFLSGDKKDVEAAIRAGYPAGQVLDSKFEDDETDKTLRIAFDFDGVLAGDESETIMQASGLSEFHSHEVKNVMQPHNPGPLKEFMVRISKIQSVEEKHKKLNPKYENRIRVSIVTARNAPSHERAMNTLKSWGVMANDAFFLGGIEKGKILSVLKPHIFFDDQSGHLKSTSAVAPSVHIPFGITNHVSTVDAIEPEADQVQQVV” here?
**A.** not soluble

**Q.** With “MGSDKIHHHHHHMTVADLVAGLRESRGFRHKTDIVDVVGSLAKRLPRGKRDLAQAVALGDDCAALADGDGYLLFAIEGMVSDFVSAMPWFAGYSSVMVNVSDIYAMGGRPLAVVDALWSQGIGAAEEVLAGMAAASVAYGVPIVGGHTNTRSEAAQLAVSIIGRARALLSSFNAKPGDSLMMAVDLRGRFEEPYPFWNASVDAPPERLRADLELLPQLAENGLCDAAKDISMAGTLGTALMLLECSQVGARIDLACIPKPEGVPLERWVSAFPSFGYLLSVRPEHVETVRAKFSARSLACSVIGSVDATSQVVLHRQDDAATLWDFQREPFIIGKDEVK” as the sequence, how does the “soluble on expression in E. coli” value read?
**A.** not soluble

**Q.** Which “soluble on expression in E. coli” value does the source give for “SNTLRDFFTNETYTTIENEQHVLTEYRLPGSIERRYYSEEATAPTTVRSVQHVLLPENEEASSDKDLSILSSSFIHKVYKLADKQEAKKKRYSADVNGEKVFFVIKKGLSVNGQSAMMLSYALDSYRDDLAYTLFKQ” here?
**A.** not soluble

**Q.** Which “soluble on expression in E. coli” value does the source give for “MSRLVIPSHSPNEEGNVVRVTPESAGWEYVGFEVYVLAKGQTLRKETKDQEACLVLLKGKANISTKLERWEQIGLRMDVSEKVPPYSVYIPSNDFYEVQAVTDLELAVCLAPGKGTYPARLIPPSEVGVEIRGAGNIERRVHNILPESQPADSLLVVEVFTPEGNWSSYPPHKHDQDNLPHESYLEETYYHKINPDHGFMVQRVYTDDRSIDETMVVKNGDVVLVPKGYHPVSAPPGYEGYYLNVMAGPVRTWKFHNDPDHEWVMESKLAAKQK” here?
**A.** not soluble

**Q.** With “MRVIVTEYQPAWVEQFEEEAQALKQILKENCLKVEHIGSTSVPNLAAKPIIDFLVIVEEIEKVDLLQWEFERIGYEYMGEFGLSGRRYLRKGPIKRTHHVHIYQFDNTQEILRHLAFRNYLRENPAIATTYGTLKKQLAQAHPDSIDKYMDGKDAFIKKIEKEALKKYWE” as the sequence, how does the “soluble on expression in E. coli” value read?
**A.** soluble

**Q.** Which “soluble on expression in E. coli” value does the source give for “MSKNIGLNAIEMSYLRQSLSLSAAQVGQLTNHSEAEVLAWENAETQAPELAQKKLLDIDDIIEMQVLNTTDGIEALFKKEPKRHLAFVVYPTQAIYTQYNPEFLSSLPLTELYNTAAWRIKKECKLVLEVDVSLINLNVEAYKAYREQNGLSESRESRAKWAATQL” here?
**A.** soluble

**Q.** For “MNLEPPKAECRSATRVMGGPCTPRKGPPKCKQRQTRQCKSKPPKKGVQGCGDDIPGMEGCGTDITVICPWEACNHCELHELAQYGIC”, which “soluble on expression in E. coli” value is on record?
**A.** soluble

**Q.** With “MMEDNKMTESEMKFRDTTIRNFFDKEDRLKSIPGQKKKKLVLLEHLISKLNAENQYTEKEINTFIKQYHDDFCTIRREFIVQGFMNREDNMYCINGREVWTKWEELK” as the sequence, how does the “soluble on expression in E. coli” value read?
**A.** not soluble

**Q.** Which “soluble on expression in E. coli” value does the source give for “MNDHSQLFRLLALLLDYPRAELREESLGLHALIRTCELPEALRDGLAALLNELCQGDLLDVQARYDGLFERGRSVSLLLFEHVHGESRDRGQAMVDLLDRYTGAGLQIDVPELPDYLPLYLEYLSLLPFAAASEGLAEVAHILGLLALRLEERGSAYAAIFEALLELGGERPDLGALRRDQAQEQRDDSLEAIDRAWEETPVSFTDPAGGCPSSSGRRPTASTEQPLQWVAQPVPQM” here?
**A.** not soluble

**Q.** Which “soluble on expression in E. coli” value does the source give for “MSKDVSIGWMYEGAKGNVHREDYLLGKKVDKNFEKYSDVVNAQKAEAIDSIVGTRAVFNSGQSTGLKTSSLQKDIIKSEDPFVAVKVREETKRREIMDNPLTKMRLQAALKSMMTSKAEKSKEKKSKKDKKKKKKKRSSSSSDESSDERVERKRRRSPSPKRRRRPSEKPRKRSRSPRRERPRSPKRSREESRKLSRKPSSSRSKSPRRSREDPRKVARKPSRSRSRSAERLRRKSRSPRRSREEPRKMSRSRSRSADKASSSRQFDSHIPRHLQQQRSRHDSSSGSESEHETRSSHRRRNSDDDERQDPRKKSYGLVEMRKRTAEEREEESRAPTKEYKLVKIPTGRGTGNTPREPRRALSEAEKAARLAEMQQDNVKWRDEIRERNVTKGRKEDDEEKEEADKNGYAPSFIRSQMREACDDMTVEKRLQSNKRGVQRAHGYMDRSFAKK” here?
**A.** not soluble

**Q.** For “MGSDKIHHHHHHMINNEKYKELIKYLKSLGKVVLAFSGGVDSTFLLKASKEALGDNVKAVTILSPYIPKWEIREAEELVKELGVEHEIIKAPIIDSIKFNPEDRCYLCKTAVFSMILDAAKRQGYDCVIDGTNFDDIKDYRPGLRALKELSVKSPLLECKLTKAEIRTFSKELGLKTWDKPPYACLLTRIPYGNELKVEDFEKIERAERYMMSIGFRAIRVRCHDDLARIEVAREDRSKLFNEELLDTISENIKKCGFKYVSLDLQGYRVGSFNETIAKISDK”, which “soluble on expression in E. coli” value is on record?
**A.** not soluble

**Q.** With “MGSDKIHHHHHHMVNMNIIEIRSDKIYKKIMDAPINKKEDIYRYELMKPFEFKWKCMNVPIVARQKGGYDVIIASEMLGVLSPKDIDEKQKKNINVLSADKIWATCKETIENSINAFIKEGYDLNIKDYKYSILLANPNSPYTILSDGYWGDGGIPGYIFLSLVPNEYTINRLPVLIAHECNHNIRFQFIEWNNNITLEEMMINEGLAENFATWMFGEEMLGPWVSRTDIETLNTYIKPIIKSALKETGFQNITSYLYGDDIAKMQGYFPVGLPYCAGYACGYYMIKYYLEKTNKSIIEATLLPYSEIIEAVKEFWE” as the sequence, how does the “soluble on expression in E. coli” value read?
**A.** not soluble
